Reference: PMC4147313
One block for each molecule: values may come before it.

Experiments:
[1] = target: formyl-peptide receptors (FPRs) of CHO-K1 cells (Chinese hamster (endogenous in CHO-K1))
[2] = target: formyl-peptide receptor (FPR) (human (endogenous in SKOV-3)) (UniProt P21462)
[3] = target: formyl-peptide receptor (FPR) (human (endogenous in SKOV-3)) (UniProt P21462); remark: listed apart in the source
[4] = target: formyl-peptide receptors (FPRs) of CHO-K1 cells (Chinese hamster (endogenous in CHO-K1)); remark: listed apart in the source

Sequence of UniProt P21462 (P21462 whole entry): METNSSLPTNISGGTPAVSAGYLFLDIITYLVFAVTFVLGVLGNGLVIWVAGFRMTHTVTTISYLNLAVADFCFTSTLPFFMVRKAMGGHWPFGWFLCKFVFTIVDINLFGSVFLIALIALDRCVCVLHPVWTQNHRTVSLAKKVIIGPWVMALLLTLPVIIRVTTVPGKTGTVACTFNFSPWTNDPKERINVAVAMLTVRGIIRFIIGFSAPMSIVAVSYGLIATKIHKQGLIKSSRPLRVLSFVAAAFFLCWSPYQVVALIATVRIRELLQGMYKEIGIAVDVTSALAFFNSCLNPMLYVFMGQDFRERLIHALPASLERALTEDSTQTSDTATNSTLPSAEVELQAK

Molecule: truncated uPAR lacking the D1 domain and exposing the 84-95 sequence (uPARD2D3) on CHO-K1 cells (domain or fragment)
- reduction by 10 nM RERF peptide of the Cell Index of CHO-K1/D2D3 cells invading matrigel toward serum (xCELLigence, after 18 hrs) (% reduction of Cell Index) [1]: 83

Molecule: urokinase receptor (uPAR) (from UniProt Q03405 23-305)
- reduction by 10 nM RERF peptide of the Cell Index of SKOV-3 cells invading matrigel toward serum (xCELLigence, 18 hrs); anti-uPAR84-95 polyclonal antibody reduced it by 50% (% reduction of Cell Index) [2]: 86
- reduction of migration of SKOV-3 cells toward 10% FBS by RERF peptide, 10 fM to 10 pM (35% at 10 fM, 60% at 10 pM) (% reduction of cell migration) [3]: 60

Now from value to molecule:

- reduction by 10 nM RERF peptide of the Cell Index of CHO-K1/D1D2D3 cells invading matrigel toward serum (xCELLigence, after 18 hrs) (% reduction of Cell Index) [1]: 75
Molecule: wild type, full length uPAR (D1D2D3) on CHO-K1 cells (from UniProt Q03405 23-305) (receptor)

- migration of wild type CHO-K1 cells toward 10 nM SRSRY (Boyden chamber, 4 hrs, 37°C), percent of basal (% of the basal cell migration) [4]: 177
Molecule: SRSRY [SRSRY peptide (uPAR 88-92, Ser-Arg-Ser-Arg-Tyr)]
